According to US20070224205A1:

Target: Toll-like Receptor 5 (UniProt O60602)
Assay: cell-based or functional assay

B1: ngSTF2.HA1-1His(PR8) (protein)
chain: AQVINTNSLSLLTQNNLQKSQSALGTAIERLSSGLRINSAKDDAAGQAIANRFTANIKGLTQASRNANDGISIAQTTEGALNEINNNLQRVRELAVQSAQSTNSQSDLDSIQAEITQRLNEIDRVSGQTQFNGVKVLAQDNTLTIQVGANDGETIDIDLKQINSQTLGLDSLNVQKAYDVKDTAVTTKAYANQGTTLDVSGLDDAAIKAATGGTQGTASVTGGAVKFDADNNKYFVTIGGFTGADAAKNGDYEVNVATDGTVTLAAGATKTTMPAGATTKTEVQELKDTPAVVSADAKNALIAGGVDATDANGAELVKMSYTDKNGKTIEGGYALKAGDKYYAADYDEATGAIKAKTTSYTAADGTTKTAANQLGGVDGKTEVVTIDGKTYQASKAAGHDFKAQPELAEAAAKTTENPLQKIDAALAQVDALRSDLGAVQNRFNSAITNLGNTVNQLSEARSRIEDSDYATEVSQMSRAQILQQAGTSVLAQANQVPQNVLSLLASGSGSGSSHNGKLCRLKGIAPLQLGKCNIAGWLLGNPECDPLLPVRSWSYIVETPNSENGICYPGDFIDYEELREQLSSVSSFERFEIFPKESSWPNHNTNGVTAACSHEGKSSFYRNLLWLTEKEGSYPKLKNSYVNKKGKEVLVLWGIHHPPNSKEQQNLYQNENAYVSVVTSNYNRRFTPEIAERPKVRDQAGRMNYYWTLLKPGDTIIFEANGNLIAPMYAFALSRGFGSGIITSQASMHECNTKCQTPLGAIQSSLPYQNIHPVTIGECPKYVRHHHHHH
B1 showed a TLR activity (EC50, ng/ml); IL-8 secretion by HEK293 cells of 30 ng/mL.
